Measured values published in US20180009892A1.

Assays:
[1] = target: T1, human ROR1 extracellular domain (ECD) protein (human), Q01973; assay: ForteBio Octet, Wnt5a binding to ROR1 in the presence of antibody 601-3-2
[2] = target: T1, human ROR1 extracellular domain (ECD) …; assay: ForteBio Octet, Wnt5a binding to ROR1 in the presence of antibody 601-3-16
[3] = target: T1, human ROR1 extracellular domain (ECD) …; assay: ForteBio Octet, Wnt5a binding to ROR1 in the presence of the control mAb
[4] = target: T1, human ROR1 extracellular domain (ECD) …; assay: ForteBio Octet, Wnt5a binding to ROR1 in the presence of antibody 601-3-12

T1 sequence (Q01973 30-406 limits assumed): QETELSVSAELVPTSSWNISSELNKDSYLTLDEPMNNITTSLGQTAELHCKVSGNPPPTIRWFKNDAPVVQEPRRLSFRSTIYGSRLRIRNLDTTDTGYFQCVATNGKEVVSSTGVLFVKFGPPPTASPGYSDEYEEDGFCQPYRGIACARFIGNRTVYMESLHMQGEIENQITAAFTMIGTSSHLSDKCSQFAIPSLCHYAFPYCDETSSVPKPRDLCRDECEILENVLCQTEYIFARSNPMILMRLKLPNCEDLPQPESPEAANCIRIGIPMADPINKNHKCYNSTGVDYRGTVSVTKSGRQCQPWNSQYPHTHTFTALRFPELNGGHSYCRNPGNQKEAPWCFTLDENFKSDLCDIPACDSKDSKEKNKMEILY

B1: Wnt5a, P41221 62-380 (ligand, UniProt P41221 62-380, looked up)
chain: IIGAQPLCSQLAGLSQGQKKLCHLYQDHMQYIGEGAKTGIKECQYQFRHRRWNCSTVDNTSVFGRVMQIGSRETAFTYAVSAAGVVNAMSRACREGELSTCGCSRAARPKDLPRDWLWGGCGDNIDYGYRFAKEFVDARERERIHAKGSYESARILMNLHNNEAGRRTVYNLADVACKCHGVSGSCSLKTCWLQLADFRKVGDALKEKYDSAAAMRLNSRGKLVQVNSRFNSPTTQDLVYIDPSPDYCVRNESTGSLGTQGRLCNKTSEGMDGCELMCCGRGYDQFKTVQTERCHCKFHWCCYVKCKKCTEIVDQFVCK
B1 was tested, and the Pesudo ka [1] was 13000 M⁻¹ s⁻¹, the Pesudo ka [2] was 6700 M⁻¹ s⁻¹ and the Pesudo ka [3] was 21000 M⁻¹ s⁻¹. It also gave a Pesudo ka [4] of 5300 M⁻¹ s⁻¹.
